Values belong to the substance of their own block, whether it stands above or below them.
Assays:
Test in all cases: DHFR protein complementation assay (yeast growth)
Details in all cases: MTX-containing media relative to MTX-free media; read off a plot
[1] = target: trio IgPSK fused to DHFR F3
[2] = target: PTPσ full-length (FL) fused to DHFR F1-2, wild type
[3] = target: caskin1 SAM fused to DHFR F3 (UniProt Q6P9K8)
Chain of UniProt Q6P9K8 (Q6P9K8 344-636): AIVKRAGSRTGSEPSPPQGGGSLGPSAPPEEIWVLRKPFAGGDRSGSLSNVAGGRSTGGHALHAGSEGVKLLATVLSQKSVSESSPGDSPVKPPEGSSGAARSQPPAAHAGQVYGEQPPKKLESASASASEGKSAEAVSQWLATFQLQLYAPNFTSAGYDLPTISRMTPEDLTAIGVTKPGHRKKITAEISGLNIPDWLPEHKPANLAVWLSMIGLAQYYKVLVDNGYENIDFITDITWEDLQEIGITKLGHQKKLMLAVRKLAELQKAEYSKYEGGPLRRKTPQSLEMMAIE

other: interaction score [1]: 0.93
Substance: PTPσ intracellular region (ICR) fused to DHFR F1-2, wild type EGFID

other: interaction score [2]: 0.8
Substance: PTPσ full-length (FL) fused to DHFR F1-2, wild type QFG

other: interaction score [3]: -0.11
Substance: PTPσ full-length (FL) fused to DHFR F1-2, wild type EGFID

— PMC6540616
